Results taken from the RNAGym collection of RNA variant scans (doi:10.1073/pnas.2313332121).

B1: TPR t1 (parent)
chain: GACCAAUCUGCCCUCAGAGCUCGAGAACAUCUUCGGAUGCAGAGGAGGCAGGCUUCGGUGGCGCGAUAGCGCCAACGUCCUCAACCUCCAAUGCAUCCCACCACAUGAUGAUGCCUGAAGAGCCUUGGUUUUUUG

Variants of: B1
Experiment: polymerase ribozyme fitness, log enrichment relative to wild type (log ratio); higher = more active; in vitro selection for triplet polymerase activity
Method in brief: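 Frozen incubation at −7 °C formed the core of a single, triplicate in vitro selection round applied to PCR-built, transcribed mutant libraries of each subunit of a heterodimeric triplet polymerase ribozyme. Extended constructs were gel-excised, captured with streptavidin beads and amplified by RT-PCR, and input and output libraries were Illumina-sequenced with a filter of ≥10 input reads and ≥1 read per output. Fitness is the logarithm of genotype enrichment relative to wild-type enrichment, with inverse-variance-weighted replicate averaging, and the logarithm is base 2.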

Variant | polymerase ribozyme fitness (log ratio)
GACCAAUCUGCCCUCUCAGCUCGAGAACAUCUUCGGAUGCAGAGGAGGCAGGCUUCGGUGGCGCGAUAGCGCCAACGUCCUCAACCUCCAAUGCAUCCCACCACAUGAUGAUGUCUGAAGAGCCUUGGUUUUUUG [A16U G17C C114U] | -1.76
GACCAAUCUGCCCUCUGAGCUCGAGAACAUCUUCGAAUGCUGAGGAGGCAGGCUUCGGUGGCGCGAUAGCGCAAACGUCCUCAACCUCCAAUGCAUCCCACCACAUGAUGAUGCCUGAAGAGCCUUGGUUUUUUG [A16U G36A A41U C73A] | -4.17
GACCAAUCUGCCCUCUGAGCUCGAGAACAUCUUCGGAUGCAUAGGAGGCAGGCUUCGGUGGCGCGAUAGCGCCAACGUCCUCAACCUCCAAUGCAUCCCACCACAUGAUGAUGCCUGAAGAGCCUUGGUUUUUUG [A16U G42U] | -2.52
GACCAAUCUGCCCUCUGAGCUCGAGAACAUCUUCGGAUGCAGAGAAGGCAGGCUUCGGUGUCGCGAUAGCGCCAACGUCCUGAACCUCCAAUGCAUCCCACCACAUGAUGAUGCCUGAAGAGCCUUGGUUUUUUG [A16U G45A G61U C82G] | -1.81
GACCAAUCUGCCCUCUGAGCUCGAGAACAUCUUCGGAUGCAGAGCAGGCAGGCUUGGGUGGCGUGAUAGCGCCAACGUCCUCCACCUCCAAUGCAUCCCACCACAUGAUGAUGCCUGAAGAGCCUUGGUUUUUUG [A16U G45C C56G C64U A83C] | -4.1
GACCAAUCUGCCCUCUGAGCUCGAGAACAUCUUCGGAUGCAGAGGAGCCAGGCUUCGGUGGCGCGAUAGCGCCAACGUCCUCAACCUCCAAUGCAUCCCACCACAUGAUGAUGCCUGAAAAGCCUUGGUUUUUUG [A16U G48C G120A] | -1.64
GACCAAUCUGCCCUCUGAGCUCGAGAACAUCUUCGGAUGCAGAGGAGCCAGGCUUCGGCGGCGCGAUAGCGCCAACGUCCUCAACCUCCAAUGCAUCCCACCACAUGAUGAUGCCUGAAGAGCCUCGGUUUUUUG [A16U G48C U59C U126C] | -2.91
GACCAAUCUGCCCUCUGAGCUCGAGAACAUCUUCGGAUGCAGAGGAGGCAGGCUUCUGUGGCGCGAUAGCGCCAACGUCCUCAACCUCCAAUGCAUCCCACCACAUGAUGAUGCCUGAAGAGCCUUGGUUUUUUG [A16U G57U] | -1.91
GACCAAUCUGCCCUCUGAGCUCGAGAACAUCUUCGGAUGCAGAGGAGGCAGGCUUCGUUGGCGCGAUAGCGCCAACGUCCUCAACCUCCAAUGCAUCCCACCACAUGAUGAUGCCUGAAGAGACUUGGUUUUUUG [A16U G58U C123A] | -2.18
GACCAAUCUGCCCUCUGAGCUCGAGAACAUCUUCGGAUGCAGAGGAGGCAGGCUUCGGUAGUGCGAUAGCGCCAACGUCCUCAACCUCCAAUGCAUCCCACCACAUGAUGACGCCUGAAGAGCCUUGGUUUUUUG [A16U G60A C62U U112C] | -0.401
GACCAAUCUGCCCUCUGAGCUCGAGAACAUCUUCGGAUGCAGAGGAGGCAGGCUUCGGUUGCGCGAUAGCGCCAACGUCCUCAACCGCCAAUGCAUCCCACCACAUGAUGAUGCCUGAAGAACCUCGGUUUUUUG [A16U G60U U87G G122A U126C] | -3.42
GACCAAUCUGCCCUCUGAGCUCGAGAACAUCUUCGGAUGCAGAGGAGGCAGGCUUCGGUGCCGCGAUAGCGCCAACGUCCUCAACCUCCAAUGCAUCCCACCACAUGAUGAUGCCUGAAGAGCCUUGGUUUUUUG [A16U G61C] | -2.41
GACCAAUCUGCCCUCUGAGCUCGAGAACAUCUUCGGAUGCAGAGGAGGCAGGCUUCGGUGUCGCGAUAGCGCCAACGUCCUCAACCUCCAAUGCAUCCCACCACAUGAUGAUGCCUGAAGAGCCUUGGUUUUUUG [A16U G61U] | -1.11
GACCAAUCUGCCCUCUGAGCUCGAGAACAUCUUCGGAUGCAGAGGAGGCAGGCUUCGGUGGCGCGAUAGCUCCAACGUCCUCAACCUCCAAUGCAUCCCACCACAUGAUGAUGCCUGAAGAGCCUUGGUUUUUUG [A16U G71U] | -0.858
GACCAAUCUGCCCUCUGAGCUCGAGAACAUCUUCGGAUGCAGAGGAGGCAGGCUUCGGUGGCGCGAUAGCGCCAACGUCCUCAACCUCCAAUGCAUCCCACCACAUUAUGAUGCCUGAAGAGCGUUGGUUUUUUG [A16U G107U C124G] | -4.06
GACCAAUCUGCCCUCUGAGCUCGAGAACAUCUUCGGAUGCAGAGGAGGCAGGCUUCGGUGGCGCGAUAGCGCCAACGUCCUCAACCUCCAAUGCAUCCCACCACAUGAUGAUUCCUGAAGAGCCUUGGUUUUUUG [A16U G113U] | -4.23
GACCAAUCUGCCCUCUGAGCUCGAGAACAUCUUCGGAUGCAGAGGAGGCAGGCUUCGGUGGCGCGAUAGCGCCAACGUCCUCAACCUCCAAUGCAUCCCACCACAUGAUGAUGCCUAAAGAGCCUUGGUUUUUUG [A16U G117A] | -2.22
GACCAAUCUGCCCUCUGAGCUCGAGAACAUCUUCGGAUGCAGAGGAGGCAGGCUUCGGUGGCGCGAUAGCGCCAACGUCCUCAACCUCCAAUGCAUCCCACCACAUGAUGAUGCCUUAAGAGCCUUGGUUUUUUG [A16U G117U] | -2.04
GACCAAUCUGCCCUCUGAGCUCGAGAACAUCUUCGGAUGCAGAGGAGGCAGGCUUCGGUGGCGCGAUAGCGCCAACGUCCUCAACCUCCAAUGCAUCCCACCACAUGAUGAUGCCUGAAGAGCCUUGGUUUUUUU [A16U G135U] | -1.8
GACCAAUCUGCCCUCUGAGCGCGAGAACAUCUUCGGAUGCAGAGGAGGCAGGCUUCGGUGGCGCGAUAGCGCCAACGUCCUCAACCUCCAAUGCAUCCCACCACAUGAUGAUGUCUGAAGAGCCUUGGUUUUUUG [A16U U21G C114U] | -4.99
GACCAAUCUGCCCUCUGAGCUCGAGAACAUCUUCGGAUGCAGAGGAGGCAGGCUUCGGUGGCGCGAUAGCGCCAACGACCUCAACCUCCAAAGCAUCCCACCACAUGAUGAUGCCUGAAGAGCCUUGGUUUUUUG [A16U U78A U92A] | -4.78

Variant | polymerase ribozyme fitness (log ratio)
GACCAAUCUGCCCUCAACGCUCGAGAACAUCUUCGGAUGCAGAGGAGGCAGGCUUCGGUGGGGCGAUAGCGCCAACGUCCUCAACCUCCAAUGCAUCCCACCACAUGAUGAUGCCUGAACAGCCUUGGUUUUUUG [G17A A18C C62G G120C] | -4.41
GACCAAUCUGCCCUCAAAGCUCGAGAACAUCUUCGGAUGCCGAGGAGGCAGGCUUCGGUGGCGCGAUAGCGCCAACGUCCUCAACCUCCAAUGCAUCCCACCACAUGAUGAUGCCUUAAGAGCCUUGGUUUUUUG [G17A A41C G117U] | -3.91
GACCAAUCUGCCCUCAAAGCUCGAGAACAUCUUCGGAUGCAGGGGAUGCAGGCUUCGGUGGCGCGAUAGCGCCAACGUCCUCAACCUCCAAUGCAUCCCACCACAUGAUGAUGCCUGAACAGCCUUGGUUUUUUC [G17A A43G G47U G120C G135C] | -2.39
GACCAAUCUGCCCUCAAAGCUCGAGAACAUCUUCGGAUGCAGUGGAGGCAGGCUUCGGUGGCGCGAUAGCGCCAACGUCCUCAACCUCCAAUGCAUCCCACCACAUGAUGAUGCCUGAAAAGCCUUGGUUUUUUG [G17A A43U G120A] | -3.38
GACCAAUCUGCCCUCAAAGCUCGAGAACAUCUUCGGAUGCAGAGGUGGCAGGCUUCGGUGGCGCGAUAGCGCCAACGUCCUCAACCUCCAAUGCAUCCCACCACAUGAUGAUGCCUGAAGAGCCUUGGUUUUUUG [G17A A46U] | -4.52
GACCAAUCUGCCCUCAAAGAUCGAGAACAUGUUCGUAUGCAGAGGCGGCAGGCUUCGGUGGCGCGAUAGCGCCAACGUCCUCAACCUCCAAUGCAUCCCACCACAUGAUGAUGCCUGAAGAGCAUUGGUUUUUUG [G17A C20A C31G G36U A46C C124A] | -7.12
GACCAAUCUGCCCUCAAAGGUCGAGAACAUCUUCGGAUGCAGAGGAGGCAGGCUUCGGUGGCGCGAUAGCGCCAACGUCCUCAACCUCCAAUGCAUCCCACCACAUGAUGAUGCCUGAAGAGCCUUGGUUUUUUG [G17A C20G] | -4.82
GACCAAUCUGCCCUCAAAGGUCGAGAACAUCUUCGGAUGCAGAGGAGGCAGGCUUCGGUGGCGCGAUAGCGCCAACGUCCUCAACCUCCAAUGCAUCCCACCACAUGAUGAUGCCUGAAGGGCCUUGGUUUUUUG [G17A C20G A121G] | -4.27
GACCAAUCUGCCCUCAAAGUUCGAGAACAUCUUCGGAUGCAGAGGAGGCAGGCUUCGGUGGCGCGAUAGCGCCAACGUCCUCAACCUCCAAUGCAUCCCACCACAUGAUGAUGCCUGAAGAGCCUUGGUUUUUUG [G17A C20U] | -3.63
GACCAAUCUGCCCUCAAAGCUCGAGAACAUCUUCGGAUGGAGAGGAGGCAGGCUUCGGUAGCGCGAUAGCGCCAACGUCCUCCCCCUCCAAUGCAUCCCACCACAUGAUGAUGCCUGAAGCGCCUUGGUUUUUUG [G17A C40G G60A A83C A84C A121C] | -3.61
GACCAAUCUGCCCUCAAAGCUCGAGAACAUCUUCGGAUGUAGAGGAGGCAGGCUUCGGUAGCGCGAUAGCGCCAACGUGCUCAACCUCCAAUGCAUCCCACCACAUGAUGAUGCCUGAAGAGCCUUGGUUUUUUG [G17A C40U G60A C79G] | -6.54
GACCAAUCUGCCCUCAAAGCUCGAGAACAUCUUCGGAUGCAGAGGAGGGAGGCUCCGGUGGCGCGAUAGCGCCAUUGUCCUCAACCUCCAAUGCAUCCCACCACAUGAUGAUUCCUGAAGAGCCUUGGUUUUUUG [G17A C49G U55C A75U C76U G113U] | -7.46
GACCAAUCUGCCCUCAAAGCUCGAGAACAUCUUCGGAUGCAGAGGAGGCAGGCUUAGGUGGCGCGAUAGCGCCAACGUCCUCAACCUCCAAUGCAUCCCACCACAUGAUGAUGCCUGAAGAGCCUUGGUUUUUUG [G17A C56A] | -2.66
GACCAAUCUGCCCUCAAAGCUCGAGAACAUCUUCGGAUGCAGAGGAGGCAGGCUUCGGUGGAGCGAUAGCGCCAACGUCCUCAACCCCCAAUGCAUCCCACCACAUGAUGAUGCCUGAAGAGCCUUGGUUUUUUG [G17A C62A U87C] | -6.24
GACCAAUCUGCCCUCAAAGCUCGAGAACAUCUUCGGAUGCAGAGGAGGCAGGCUUCGGUGGCGCGAUAGCGGCAACGUCCUCAACCUCCAAUGCAUCCCACCACAUGAUGAUGCCUGAAGAGCCUUGGUUUUUUG [G17A C72G] | -3.28
GACCAAUCUGCCCUCAAAGCUCGAGAACAUCUUCGGAUGCAGAGGAGGCAGGCUUCGGUGGCGCGAUAGCGUCAACGUCCUCAACCUCCAAUGCAUCCCACCACAUGAUGAUGCCUGAAGAGCCUUGGUUUUUUG [G17A C72U] | -2.29
GACCAAUCUGCCCUCAAAGCUCGAGAACAUCUUCGGAUGCAGAGGAGGCAGGCUUCGGUGGCGCGAUAGCGCUAACGUCCUCAACCUCCAAUGCAUCCCACCACAUGAUGAAGCCUGAUGAGUCCUGGUUUUUUG [G17A C73U U112A A119U C123U U125C] | -2.9
GACCAAUCUGCCCUCAAAGCUCGAGAACAUCUUCGGAUGCAGAGGAGGCAGGCUUCGGUGGCGCGAUAGCGCCAACGUCCUCAACCUCCAAUGGAUCCCACCACAUGAUGAUGCCUGAAGAGCCUUGGUUUUUUG [G17A C94G] | -4.81
GACCAAUCUGCCCUCAAAUCUCGAGAACAUCUUCGGAUGCAGAGGAGGCAGGCUACGGUGGCGCGAUAGCGCCAACGUCCUAAACCUCCAAUGCAUCCCACCACAUGAUGAUGACUGAAGAGCCUUGGUUUUUUG [G17A G19U U55A C82A C114A] | -3.12
GACCAAUCUGCCCUCAAAGCUCGAGAACAUCUUCGUAUGCAGAGGAGGCAGGCUUUGGUGGCGCGAUAGCGCCAACGUCCUCAACCUCCAAUGCAUCCCACCACAUGAUGAUGCCUGAAGAGCCUUGGUUUUUUG [G17A G36U C56U] | -4.9
GACCAAUCUGCCCUCAAAGCUCGAGAACAUCUUCGUAUGCAGAGGAGGCAGGCUUCGGUGGCGCGAUAGCGCCAACGUCCUCAACCUCCAAUGCAUCCCACCACAUGAUGAGGCCUGAAGAGCCUUGGUUUUUUG [G17A G36U U112G] | -4.13
